# Measurements as given in the supplement of paper PMC7125110.
# ± gives the standard error. For part of these data: This sample holds only a part of the variants without activity.
# B1: glmS ribozyme (parent)
# chain: AUAAAAGCGCCAGAACUACAGAAAUGUAGUUGACGAGGAGGAGGUUUAUCGAAUUUUCGGCGGAUGCCUCCAAA
# Legend:
# Details in all cases: with glucosamine-6-phosphate
# [1] = variants of: B1; experiment: kcat; higher = faster cleavage; RNA array
# In short: (§1)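 Barcoded glmS ribozyme variants on sequenced MiSeq chips were transcribed in situ by E. coli RNA polymerase and tracked through a hybridised Cy3 probe at 37 °C. Glucosamine-6-phosphate (40 μM to 10 mM) in HEPES/KCl/Mg(OAc)2 buffer was flowed in, and tiles were imaged over ~14 h. Signals were normalised to baseline and to non-cleaving reference variants; per-tile medians were fit to one- or two-exponential decays to give kobs. kcat and KM came from weighted Michaelis–Menten fits across concentrations.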
# [2] = variants of: B1; experiment: self-cleavage kobs at 640 uM GlcN6P; higher = faster cleavage; RNA array
# In short: as §1
# [3] = variants of: B1; experiment: self-cleavage kobs at 10000 uM GlcN6P; higher = faster cleavage; RNA array
# In short: as §1
# [4] = variants of: B1; experiment: KM; higher = weaker cofactor use; RNA array
# In short: as §1
# [5] = variants of: B1; experiment: self-cleavage kobs at 2500 uM GlcN6P; higher = faster cleavage; RNA array
# In short: as §1
# [6] = variants of: B1; experiment: self-cleavage kobs at 40 uM GlcN6P; higher = faster cleavage; RNA array
# In short: as §1
# [7] = variants of: B1; experiment: self-cleavage kobs at 160 uM GlcN6P; higher = faster cleavage; RNA array
# In short: as §1
Variant,kcat [1] [s⁻¹],self-cleavage kobs at 640 uM GlcN6P [2] [s⁻¹],self-cleavage kobs at 10000 uM GlcN6P [3] [s⁻¹],KM [4] [µM],self-cleavage kobs at 2500 uM GlcN6P [5] [s⁻¹],self-cleavage kobs at 40 uM GlcN6P [6] [s⁻¹],self-cleavage kobs at 160 uM GlcN6P [7] [s⁻¹]
A12C G60C,< 1e-05,< 1e-05,< 1e-05,–,–,–,–
G9A U55A,2.49e-05 ± 5.6e-07,–,2.18e-05 ± 9.9e-06,1410 ± 200,–,–,–
C11A A53G,0.000202 ± 9.2e-06,4.47e-05 ± 1e-05,0.000164 ± 1.8e-05,2130 ± 240,0.000112 ± 1.2e-05,–,–
C11U C16U C71U,0.000649 ± 0.00014,0.000215 ± 4.6e-05,0.000614 ± 0.00012,1100 ± 540,0.000443 ± 0.00011,4.58e-05 ± 1.8e-05,–
C10A A14U G59U C71G,1.42e-05 ± 3.8e-06,–,–,–,–,–,–
C10A C61A,2.22e-05 ± 9.1e-06,–,–,–,–,< 1e-05,–
C11A C50U A64U,< 1e-05,–,–,–,–,–,–
C11A C71U,0.000122 ± 1.1e-05,7.03e-05 ± 1.1e-05,0.000113 ± 8e-06,451 ± 210,0.000147 ± 2.3e-05,–,–
C10U A64G,3.72e-05 ± 4.4e-06,–,3.21e-05 ± 5.8e-06,–,3.75e-05 ± 5.1e-06,–,–
A12C U31G,0.00416 ± 0.00048,0.00081 ± 0.00015,0.00339 ± 0.00051,2340 ± 410,0.00237 ± 0.00075,8.48e-05 ± 1.8e-05,0.000245 ± 7.1e-05
C11U U65A C71U,0.000194 ± 1.4e-05,2.73e-05 ± 1.3e-05,0.000139 ± 4.3e-05,3610 ± 470,8.15e-05 ± 1.6e-05,–,–
G9A U54C,0.000246 ± 5.5e-05,–,3.34e-05 ± 1.3e-05,–,–,–,–
A12C G29A,0.00648 ± 0.0024,0.00107 ± 0.00022,0.00557 ± 0.00097,–,0.00331 ± 0.00067,0.000188 ± 3.3e-05,0.000322 ± 0.00011
A12C G29C,0.00327 ± 0.00068,0.000508 ± 5.3e-05,0.00271 ± 0.00022,2770 ± 820,0.00139 ± 0.00023,6.03e-05 ± 6.2e-06,0.000193 ± 2.7e-05
G9U A33U,< 1e-05,< 1e-05,< 1e-05,–,–,–,< 1e-05
C10U A14C U30A G35A G38A,< 1e-05,–,–,–,–,–,–
C10G C50A C71U,1.87e-05 ± 3.4e-06,–,< 1e-05,–,–,–,–
C10A A42C,< 1e-05,< 1e-05,–,2410 ± 820,–,< 1e-05,< 1e-05
A12C A23C U54G C70A,0.00013 ± 1.8e-05,0.000146 ± 2.1e-05,0.000154 ± 2.8e-05,–,0.000103 ± 1.9e-05,8.19e-05 ± 2.8e-05,–

Variant,kcat [1] [s⁻¹],self-cleavage kobs at 640 uM GlcN6P [2] [s⁻¹],self-cleavage kobs at 10000 uM GlcN6P [3] [s⁻¹],KM [4] [µM],self-cleavage kobs at 2500 uM GlcN6P [5] [s⁻¹],self-cleavage kobs at 40 uM GlcN6P [6] [s⁻¹],self-cleavage kobs at 160 uM GlcN6P [7] [s⁻¹]
C11A C50A,1.11e-05 ± 3.1e-06,–,–,–,–,–,–
C11U G37A,7.88e-05 ± 6.9e-07,2.98e-05 ± 9.1e-06,7.12e-05 ± 8.2e-06,1070 ± 36,5.51e-05 ± 9.5e-06,–,–
C11U G38A G41A A42G,1.14e-05 ± 5.7e-06,–,–,–,–,< 1e-05,< 1e-05
C10G A39G,< 1e-05,–,–,–,–,–,< 1e-05
A12C G29U U47G,0.00126 ± 0.00043,0.000151 ± 3.1e-05,0.000831 ± 0.00019,4280 ± 2100,0.000697 ± 0.00018,–,–
C11G A12C,0.000156 ± 3.2e-05,–,0.00011 ± 1.3e-05,–,6.61e-05 ± 1.2e-05,–,–
C11U G29A,0.000628 ± 0.00013,9.17e-05 ± 1.1e-05,0.000474 ± 5.6e-05,4190 ± 1400,0.000194 ± 3e-05,–,–
A12C C50A U56A,< 1e-05,< 1e-05,–,–,–,–,–
A12C G13U,0.000279 ± 2.1e-05,2.43e-05 ± 6.8e-06,0.000172 ± 1.6e-05,6200 ± 850,8.18e-05 ± 1e-05,–,–
C11U G40C C71U,0.000141 ± 1.8e-06,4.4e-05 ± 1.6e-05,0.000124 ± 1.7e-05,1450 ± 65,8.73e-05 ± 2.5e-05,–,–
G9U A42G U47C,< 1e-05,< 1e-05,–,–,–,–,< 1e-05
G9A G32C C67A,< 1e-05,–,–,304 ± 150,< 1e-05,–,–
A12C C68U,0.000589 ± 4.7e-05,0.00018 ± 1.7e-05,0.000494 ± 3.6e-05,1370 ± 220,0.000436 ± 3.7e-05,–,6.12e-05 ± 8.3e-06
A12C G62U C70G,2.02e-05 ± 4.5e-06,–,–,–,–,–,–
C10U U47A,2.05e-05 ± 1.2e-06,–,–,300 ± 150,–,< 1e-05,< 1e-05
C10U G32U,4.97e-05 ± 3.1e-06,–,4.67e-05 ± 6.1e-06,–,5.05e-05 ± 1.2e-05,–,< 1e-05
A12C A14C,0.00082 ± 0.00025,7.98e-05 ± 2e-05,0.000534 ± 0.0001,6190 ± 2800,0.000201 ± 5.1e-05,–,4e-05 ± 1.8e-05
C11U A14U G38A C50U U65G,2.42e-05 ± 9.7e-06,–,–,–,–,–,–
G9U A14G,1.09e-05 ± 5.1e-06,–,< 1e-05,–,< 1e-05,< 1e-05,–
